Laboratory results taken from paper PMC12848141.

Assays:
[1] = O-GlcNAc at T49
OGT [2] = target: OGT (UniProt O15294); assay: co-IP of HA-YTHDF2 and Myc-OGT; details: reference: HA-YTHDF2 wild type; sites S39
OGT [3] = target: OGT (UniProt O15294); assay: co-IP in H1299 cells; details: reference: YTHDF2 wild type; sites S39
[4] = anti-ubiquitin blot, H1299; details: glycan lost; control: HA-YTHDF2-WT
[5] = anti-HA IP, anti-pS39 blot, 293T
anti-pS39 blot, H1299 = details: glycan lost; control: HA-YTHDF2-WT
[6] = CHX pulse-chase, protein remaining, H1299; details: glycan lost; control: HA-YTHDF2-WT
[7] = CHX pulse-chase, protein remaining, HEK-293T; details: glycan lost; control: HA-YTHDF2-WT
[8] = anti-HA IP, anti-ubiquitin blot, 293T, MG132; details: glycan lost; control: HA-YTHDF2-WT

Molecule: YTHDF2: Flag-OGA overexpression
- other [1]: decreases, YTHDF2 ubiquitination, Ub/HA ratio ~0.5 vs 1.0 without OGA (read from plot, P < 0.05)

Molecule: YTHDF2 (from UniProt Q9Y5A9) HA-YTHDF2-S39A
- binding against the reference (OGT [2]): stronger

Molecule: YTHDF2 (from UniProt Q9Y5A9) YTHDF2-S39A
- binding against the reference (OGT [3]): stronger

Molecule: YTHDF2: OGA overexpression
- other [1]: decreases

Molecule: YTHDF2: TMG plus glucose (OGA inhibition, raises O-GlcNAcylation)
- other [1]: decreases

B1: YTHDF2: T49A (protein)
parent chain: MSASSLLEQRPKGQGNKVQNGSVHQKDGLNDDDFEPYLSPQARPNNAYTAMSDSYLPSYYSPSIGFSYSLGEAAWSTGGDTAMPYLTSYGQLSNGEPHFLPDAMFGQPGALGSTPFLGQHGFNFFPSGIDFSAWGNNSSQGQSTQSSGYSSNYAYAPSSLGGAMIDGQSAFANETLNKAPGMNTIDQGMAALKLGSTEVASNVPKVVGSAVGSGSITSNIVASNSLPPATIAPPKPASWADIASKPAKQQPKLKTKNGIAGSSLPPPPIKHNMDIGTWDNKGPVAKAPSQALVQNIGQPTQGSPQPVGQQANNSPPVAQASVGQQTQPLPPPPPQPAQLSVQQQAAQPTRWVAPRNRGSGFGHNGVDGNGVGQSQAGSGSTPSEPHPVLEKLRSINNYNPKDFDWNLKHGRVFIIKSYSEDDIHRSIKYNIWCSTEHGNKRLDAAYRSMNGKGPVYLLFSVNGSGHFCGVAEMKSAVDYNTCAGVWSQDKWKGRFDVRWIFVKDVPNSQLRHIRLENNENKPVTNSRDTQEVPLEKAKQVLKIIASYKHTTSIFDDFSHYEKRQEEEESVKKERQGRGK
- other: ubiquitination [4]: decreases
- other: Ser-39 phosphorylation ([5]; glycan lost, control: HA-YTHDF2-WT): increases
- other: Ser-39 phosphorylation (anti-pS39 blot, H1299): increases
- degradation_or_half_life [6]: increases
- degradation_or_half_life [7]: increases
- other: ubiquitination [8]: decreases

B2: YTHDF2: TMG plus glucose (protein)
parent chain: B1 parent chain
- other: Ser-39 phosphorylation ([5]; glycan gained, control: untreated cells): decreases
